Results on three substances are retold here after article PMC11059244.

The conditions of the data set: phosphorylation at S405.

For YAP: S405A, the degradation_or_half_life result is on record as “decreases” and the other result is given as “increases”. Take YAP: ponatinib (MAP3K3 inhibitor): the expression_or_secretion result is “decreases”.

On to YAP: S405D phosphomimetic, for which the other result was “decreases”.
